We go through six molecules from publication doi:10.1101/2024.06.06.597810 (2024).

B1: S2P6 UCA VH Y32Q/M48I double mutant Fab (Fab, V domains shown)
VH: QVQLVQSGAEVKKPGASVKVSCKASGYTFTSQYMHWVRQAPGQGLEWIGIINPSGGSTSYAQKFQGRVTMTRDTSTSTVYMELSSLRSEDTAVYYCARGSPKGAFDYWGQGTLVTVSS
VL: not shown
B2: S2P6 UCA VH Y32Q Fab (Fab, V domains shown)
VH: B1 VH with I48M
VL: not shown
B3: S2P6 UCA VH M48I Fab (Fab, V domains shown)
VH: B1 VH with Q32Y
VL: not shown
B4: S2P6 UCA VH Y32Q/M48I/S56H triple mutant Fab (Fab, V domains shown)
VH: B1 VH with S57H
VL: not shown
B5: S2P6 UCA VH M48I/S56H double mutant Fab (Fab, V domains shown)
VH: B1 VH with Q32Y, S57H
VL: not shown
B6: S2P6 UCA VH S56H Fab (Fab, V domains shown)
VH: B1 VH with Q32Y, I48M, S57H
VL: not shown

Positions count from the first letter of the chain named. Names and notes keep the numbering of the source. Where no end group is shown, it is not given here.

The target in the assay is T1, Biotin-labeled MHV stem helix peptide (MHV, also: biotin label, position not given here).
T1 chain: PDFKEELDKWFKNQ
Briefly: BLI. Background: In BLI a coated tip is dipped into the sample, and binding shifts an interference pattern.
Take B1: binding was characterised by a dissociation constant (Kd) of 1190 nM.

B2: the affinity, expressed as Kd, was 2260 nM.

Turning to B3, the Kd came to 731 nM. This Kd is about 3.1-fold lower than that of the molecule before.

As to B4, the affinity, expressed as Kd, was 2230 nM.

Molecule B5 returned a Kd of 1300 nM.

For B6, the Kd is 3760 nM.

Usually Kd stands for the constant that tells how readily two partners part at equilibrium. A low value points to higher affinity.
